Columns and labels:
[1] = target: T1, p38γ (p38γ-2×Strep) (Homo sapiens (Human), UniProt P53778 1-367); experiment: ELISA, p38 proteins coated on the plate, nanobody periplasmic extract, anti-FLAG detection, OD450
T1 construct: Expressed from pET28a-p38γ-2×Strep in E. coli; not shown: 2×Strep tag
T1 sequence: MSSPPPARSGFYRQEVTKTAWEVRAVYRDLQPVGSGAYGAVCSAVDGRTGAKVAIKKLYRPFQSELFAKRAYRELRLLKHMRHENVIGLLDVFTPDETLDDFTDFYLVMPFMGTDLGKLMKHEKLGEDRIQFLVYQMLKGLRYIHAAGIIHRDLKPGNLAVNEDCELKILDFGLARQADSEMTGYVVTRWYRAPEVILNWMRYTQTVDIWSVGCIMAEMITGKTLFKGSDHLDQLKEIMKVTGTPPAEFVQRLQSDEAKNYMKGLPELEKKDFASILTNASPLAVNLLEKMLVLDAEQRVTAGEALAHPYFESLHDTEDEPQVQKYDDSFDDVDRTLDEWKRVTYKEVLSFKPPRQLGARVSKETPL

[2] = target: T2, 蛋白激酶p38δ (p38δ-2×Strep) (Homo sapiens (Human), UniProt O15264 1-365); experiment: indirect ELISA, p38δ coated, nanobody at 0-6.4 μM, anti-FLAG detection, 4-parameter fit
T2 construct: Expressed from pET28a-p38δ-2×Strep in E. coli BL21(DE3) and purified on MagStrep beads; The tag is placed C-terminal on the strength of the vector name only; Any further vector residues are not described; not shown: 2×Strep tag
T2 sequence: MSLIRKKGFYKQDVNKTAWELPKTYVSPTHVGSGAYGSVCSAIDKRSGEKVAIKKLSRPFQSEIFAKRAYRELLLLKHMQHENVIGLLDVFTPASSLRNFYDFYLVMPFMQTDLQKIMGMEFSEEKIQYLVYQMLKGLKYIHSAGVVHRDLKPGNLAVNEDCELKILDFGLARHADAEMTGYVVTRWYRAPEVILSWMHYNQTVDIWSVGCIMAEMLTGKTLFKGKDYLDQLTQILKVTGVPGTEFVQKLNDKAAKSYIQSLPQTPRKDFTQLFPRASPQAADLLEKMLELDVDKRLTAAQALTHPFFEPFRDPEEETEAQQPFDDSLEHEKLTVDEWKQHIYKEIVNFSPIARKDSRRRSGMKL

binding result [1]: no binding | Kd [2]: 1.32 µM
B1: 纳米抗体Nb13-1 (VHH)
VHH: QVQLVESGGALVQPGGSLRLSCAASGWWGQRGWLRWYRQAPGKEREWVCGISLRRNRYSYEDSVKGRFTCSRDDARNTVYLQLNSLKPEDTAVYYCAPLSLLHDEDNHSSNYWGQGTQVTVSS
notes: Expressed from pET22b-NB-FLAG in E. coli BL21(DE3); It was used as periplasmic extract in several assays; also called 特异性结合蛋白激酶p38δ的纳米抗体; not shown: C-terminal FLAG tag fused in pET22b
